{"source": "patent US10865390B2", "about": "“Alcohol dehydrogenase mutant and application thereof in synthesis of diaryl chiral alcohols” (Jiangnan University, priority 2018, dated 2020)", "molecules": {"B1": {"name": "M2: alcohol dehydrogenase mutant: valine for glutamic acid at position 214 (E214V) of SEQ ID No. 2 (protein)", "chain": "MSVLISGASGYIAKHIVRVLLEQNYKVIGTVRSQDKADKLLKQYNNPNLSYEIVPEIANLDAFDDIFKKHGKEIKYVIHAASPVNFGAKDLEKDLVIPAINGTKNMFEAIKKYAPDTVERVVMTASYASIMTPHRQNDPTLTLDEETWNPVTEENAYENVFTAYCASKTFAEKEAWKFVKENSDAVKFKLTTIHPSFVFGPQNFDEDVTKKLNVTCEIINGLLHAPFDTKVEKTHFSQFIDVRDVAKTHVLGFQKDELINQRLLLCNGAFSQQDIVNVFNEDFPELKGQFPPEDKDTDLNKGVTGCKIDNEKTKKLLAFEFTPFHKTIHDTVYQILHKEGRV", "modifications": "Protein translated from synthetic DNA"}, "B2": {"name": "M1: alcohol dehydrogenase mutant: glycine for glutamic acid at position 214 (E214G) of SEQ ID No. 2 (protein)", "chain": "B1 chain with V214G", "modifications": "Protein translated from synthetic DNA"}, "B3": {"name": "M3: alcohol dehydrogenase mutant E214G, S237C of SEQ ID No. 2 (protein)", "chain": "B1 chain with V214G, S237C", "modifications": "Protein translated from synthetic DNA"}, "B4": {"name": "M7: alcohol dehydrogenase mutant E214V, T215S of SEQ ID No. 2 (protein)", "chain": "B1 chain with T215S", "modifications": "Protein translated from synthetic DNA"}}, "type_in_all_cases": "biochemical", "key": {"[1]": {"assay": "Stereoselectivity analysis of CPMK reduction (chiral liquid chromatography, Table 1)", "settings": "product CPMA from CPMK", "method": "(§1) In an embodiment of the present disclosure, the (R)- and (S)-CPMA is chromatographed by taking 100 μL reaction solution, adding 500 μL ethyl acetate, shaking for 1-2 min, centrifuging at 12,000 rpm for 2-5 min, placing a supernatant into a centrifuge tube, and after an organic phase is naturally volatilized completely, adding 500 μL chromatographic pure ethanol for chiral liquid chromatography of a conversion rate and an ee value. The specific chromatographic conditions are as follows: Daicel Chiralcel OB-H (5 μm, 250 mm×4.6 mm) liquid chromatography column, mobile phases are n-hexane: ethanol: ethanolamine (90:10:0.01, v/v/v), the flow rate is 1 mL/min, the column temperature is 30° C., the UV detection wavelength is 254 nm, the injection volume is 10 μL, and the retention time for (R)-CPMA and that for (S)-CPMA are 11.14 min and 12.34 min respectively.\nMethod for determining optical purity ee:\nAs: molar concentration of (S)-CPMA obtained by liquid chromatography; and AR: molar concentration of (R)-CPMA obtained by liquid chromatography.\nThe activity of KpADH at different substrate concentrations and coenzyme concentrations was determined, and a double reciprocal curve was made based on the reciprocal of activity and substrate concentration to calculate kinetic parameters."}, "[2]": {"assay": "Substrate specificity: reduction of prochiral carbonyl compound (Table 2)", "text": "The reduction on prochiral carbonyl compounds by the alcohol dehydrogenase mutants obtained in Example 2 was studied, and the studied prochiral carbonyl compounds include (4-chlorophenyl)-(pyridin-2-yl)-methanone (CPMK), phenyl-(pyridin-2-yl)-methanone, (4-chlorophenyl)-(phenyl)-methanone, (4-bromophenyl)-(phenyl)-methanone, (4-fluorophenyl)-(pyridin-2-yl)-methanone, (4-methoxyphenyl)-(phenyl)-methanone, acetophenone, 4-chloroacetophenone and 2-(4-chlorophenyl)acetyl chloride."}, "[3]": {"assay": "20 mL biocatalytic system: asymmetric reduction of CPMK", "method": "as §1\nA 20 mL biocatalytic system was established: 100 mM potassium phosphate buffer (pH 7.0), and the alcohol dehydrogenase mutants M6 and M7 obtained in Example 2 as well as wild KpADH 10 g/L, CPMK 100 mM, 200 mM and 500 mM were added (substrate added in batches). […]"}}, "note": "Positions count from the first letter of the chain named. Numbers in names are those of the source."}
{"molecule": "B1", "values": [{"measurement": "ee", "setting": "[1]", "result": 92.3, "unit": "%"}, {"measurement": "ee value of product", "setting": "[2]; substrate drawing 1 (CPMK)", "result": 92.3, "unit": "%"}, {"measurement": "ee value of product", "setting": "[2]; substrate drawing 2", "result": 30.6, "unit": "%"}, {"measurement": "ee value of product", "setting": "[2]; substrate drawing 3", "result": 87.9, "unit": "%"}, {"measurement": "ee value of product", "setting": "[2]; substrate drawing 4", "result": 95.5, "unit": "%"}, {"measurement": "ee value of product", "setting": "[2]; substrate drawing 5", "result": 0.56, "unit": "%"}, {"measurement": "ee value of product", "setting": "[2]; substrate drawing 6", "result": 23.2, "unit": "%"}, {"measurement": "ee value of product", "setting": "[2]; substrate drawing 7", "result": 45.3, "unit": "%"}, {"measurement": "ee value of product", "setting": "[2]; substrate drawing 8", "result": 94.9, "unit": "%"}, {"measurement": "ee value of product", "setting": "[2]; substrate drawing 9", "result": 91.2, "unit": "%"}]}
{"molecule": "B2", "values": [{"measurement": "ee", "setting": "[1]", "result": 3.29, "unit": "%"}, {"measurement": "ee value of product", "setting": "[2]; substrate drawing 1 (CPMK)", "result": 24.2, "unit": "%"}, {"measurement": "ee value of product", "setting": "[2]; substrate drawing 2", "result": 41.0, "unit": "%"}, {"measurement": "ee value of product", "setting": "[2]; substrate drawing 3", "result": 63.2, "unit": "%"}, {"measurement": "ee value of product", "setting": "[2]; substrate drawing 4", "result": 49.3, "unit": "%"}, {"measurement": "ee value of product", "setting": "[2]; substrate drawing 5", "result": 7.51, "unit": "%"}, {"measurement": "ee value of product", "setting": "[2]; substrate drawing 6", "result": 42.7, "unit": "%"}, {"measurement": "ee value of product", "setting": "[2]; substrate drawing 7", "result": 68.5, "unit": "%"}, {"measurement": "ee value of product", "setting": "[2]; substrate drawing 8", "result": 86.3, "unit": "%"}, {"measurement": "ee value of product", "setting": "[2]; substrate drawing 9", "result": 94.5, "unit": "%"}]}
{"molecule": "B3", "values": [{"measurement": "ee", "setting": "[1]", "result": 51.8, "unit": "%"}, {"measurement": "ee value of product", "setting": "[2]; substrate drawing 1 (CPMK)", "result": 65.4, "unit": "%"}, {"measurement": "ee value of product", "setting": "[2]; substrate drawing 2", "result": 36.5, "unit": "%"}, {"measurement": "ee value of product", "setting": "[2]; substrate drawing 3", "result": 33.2, "unit": "%"}, {"measurement": "ee value of product", "setting": "[2]; substrate drawing 4", "result": 63.3, "unit": "%"}, {"measurement": "ee value of product", "setting": "[2]; substrate drawing 5", "result": 45.6, "unit": "%"}, {"measurement": "ee value of product", "setting": "[2]; substrate drawing 6", "result": 80.6, "unit": "%"}, {"measurement": "ee value of product", "setting": "[2]; substrate drawing 7", "result": 95.3, "unit": "%"}, {"measurement": "ee value of product", "setting": "[2]; substrate drawing 8", "result": 88.9, "unit": "%"}, {"measurement": "ee value of product", "setting": "[2]; substrate drawing 9", "result": 99.8, "unit": "%"}]}
{"molecule": "B4", "values": [{"measurement": "ee value of final reduction product", "setting": "[3]; 20 mL biocatalytic system, enzyme 10 g/L, 30° C., pH 7.5", "result": 99.7, "unit": "%"}, {"measurement": "Conversion rate", "setting": "[3]; CPMK 100 mM, reaction time 1 h", "result": 34.0, "unit": "%"}, {"measurement": "Conversion rate", "setting": "[3]; CPMK 100 mM, reaction time 2 h", "result": 40.8, "unit": "%"}, {"measurement": "Conversion rate", "setting": "[3]; CPMK 100 mM, reaction time 3 h", "result": 41.5, "unit": "%"}, {"measurement": "Conversion rate", "setting": "[3]; CPMK 100 mM, reaction time 4 h", "result": 46.5, "unit": "%"}, {"measurement": "Conversion rate", "setting": "[3]; CPMK 100 mM, reaction time 6 h", "result": 58.7, "unit": "%"}, {"measurement": "Conversion rate", "setting": "[3]; CPMK 100 mM, reaction time 8 h", "result": 69.0, "unit": "%"}, {"measurement": "Conversion rate", "setting": "[3]; CPMK 100 mM, reaction time 12 h", "result": 99.7, "unit": "%"}, {"measurement": "Conversion rate", "setting": "[3]; CPMK 100 mM, reaction time 24 h", "result": 99.7, "unit": "%"}, {"measurement": "Conversion rate", "setting": "[3]; CPMK 200 mM, reaction time 1 h", "result": 20.9, "unit": "%"}, {"measurement": "Conversion rate", "setting": "[3]; CPMK 200 mM, reaction time 2 h", "result": 33.1, "unit": "%"}, {"measurement": "Conversion rate", "setting": "[3]; CPMK 200 mM, reaction time 3 h", "result": 48.1, "unit": "%"}, {"measurement": "Conversion rate", "setting": "[3]; CPMK 200 mM, reaction time 4 h", "result": 55.2, "unit": "%"}, {"measurement": "Conversion rate", "setting": "[3]; CPMK 200 mM, reaction time 6 h", "result": 77.4, "unit": "%"}, {"measurement": "Conversion rate", "setting": "[3]; CPMK 200 mM, reaction time 8 h", "result": 86.3, "unit": "%"}, {"measurement": "Conversion rate", "setting": "[3]; CPMK 200 mM, reaction time 12 h", "result": 92.2, "unit": "%"}, {"measurement": "Conversion rate", "setting": "[3]; CPMK 200 mM, reaction time 24 h", "result": 99.7, "unit": "%"}, {"measurement": "Conversion rate", "setting": "[3]; CPMK 500 mM, reaction time 1 h", "result": 10.8, "unit": "%"}, {"measurement": "Conversion rate", "setting": "[3]; CPMK 500 mM, reaction time 2 h", "result": 21.1, "unit": "%"}, {"measurement": "Conversion rate", "setting": "[3]; CPMK 500 mM, reaction time 3 h", "result": 38.7, "unit": "%"}, {"measurement": "Conversion rate", "setting": "[3]; CPMK 500 mM, reaction time 4 h", "result": 43.2, "unit": "%"}, {"measurement": "Conversion rate", "setting": "[3]; CPMK 500 mM, reaction time 6 h", "result": 62.1, "unit": "%"}, {"measurement": "Conversion rate", "setting": "[3]; CPMK 500 mM, reaction time 8 h", "result": 70.7, "unit": "%"}, {"measurement": "Conversion rate", "setting": "[3]; CPMK 500 mM, reaction time 12 h", "result": 89.9, "unit": "%"}, {"measurement": "Conversion rate", "setting": "[3]; CPMK 500 mM, reaction time 24 h", "result": 99.4, "unit": "%"}, {"measurement": "time required to achieve a conversion rate close to 99.9%", "setting": "[3]; CPMK concentration 200 mM", "result": 24, "unit": "h"}, {"measurement": "ee value of product", "setting": "[2]; substrate drawing 2", "result": 11.9, "unit": "%"}, {"measurement": "ee value of product", "setting": "[2]; substrate drawing 3", "result": 99.4, "unit": "%"}, {"measurement": "ee value of product", "setting": "[2]; substrate drawing 5", "result": 9.22, "unit": "%"}, {"measurement": "ee value of product", "setting": "[2]; substrate drawing 6", "result": 45.7, "unit": "%"}, {"measurement": "ee value of product", "setting": "[2]; substrate drawing 7", "result": 51.3, "unit": "%"}, {"measurement": "ee value of product", "setting": "[2]; substrate drawing 8", "result": 95.1, "unit": "%"}, {"measurement": "ee value of product", "setting": "[2]; substrate drawing 9", "result": 77.5, "unit": "%"}]}
